Changes are numbered by the printed parent chain. Blank lines part the entries; values can stand above or below the molecule they belong to.
Key:
[1] = target: mutated rMal d 1 (2781) (apple) (UniProt Q40280); assay: Biacore SPR, BV16 on the chip, antigen injected at 5 concentrations
[2] = target: rBet v 1.2801 (database accession number: Z80104) (birch); assay: as above
[3] = target: receptor-bound IgE on basophils of birch pollen allergic patients; assay: cell-based or functional assay
[4] = target: pooled IgE serum from birch allergic patients (FIG. 8A); assay: solid phase IgE inhibition assay (ADVIA Centaur), reference rBet v 1.2801
[5] = target: pooled IgE serum from birch allergic patients (FIG. 8A); assay: solid phase IgE inhibition assay (ADVIA Centaur), inhibitor at 3000 ng/test, competitor biotinylated rBet v 1.2801

Molecule: monoclonal mouse IgG antibody BV16 raised against nBet v 1
Kd [1]: 0.27 nM
kon [1]: 120000 M⁻¹ s⁻¹
Kd [2]: 0.24 nM
koff [2]: 2.5e-05 s⁻¹
kon [2]: 100000 M⁻¹ s⁻¹

B2: mutated rMal d 1 (2760), Q40280 2-159 (protein)
chain: GVYTYENEYTSEIPPPRLFKAFVLDADTLIPQIAPQAIKHAEILSGDGGPGTIKKITFGEGSQYGYVKHKIDSVDEANYSYAYTLIEGDALTDTIEKVSYETKLVASGSGSIIKSISHYHTKGDVEIMEEHVKAGKEKAHGLFKLIESYLKDHPDAYN
concentration required to trigger histamine release in patient (p) compared to rBet v 1.2801 [3]: 100 fold

B4: mutated rMal d 1 (2762), Q40280 2-159 (protein)
chain: GVYTYENEYTSVIPPARLFKAFVLDADNLIPKIAPQAIKHAEILEGDGGPGTIKKITFGEGSQYGYVKHKIDSVDEANYSYAYTLIEGDALTDTIEKVSYETKLVATPDGGSIIKSISHYHTKGDVEIMEEHVKAGKEKAHGLFKLIESYLLDHSDAYN
shift of the histamine release curve toward higher antigen concentrations compared to rBet v 1.2801 [3]: 20 fold

B5: mutated rMal d 1 (2762) (protein)
chain: B4 chain
fold higher antigen concentration than rBet v 1.2801 to reach the same IgE inhibition (62%) [4]: 500 fold
percent inhibition of binding of serum-IgE to biotinylated rBet v 1.2801 [5]: 62%

The next lines start with the values.

shift of the histamine release curve toward higher antigen concentrations compared to rBet v 1.2801 [3]: 2 fold
B1: mutated rMal d 1 (2781), Q40280 2-159 (protein)
chain: B2 chain with T28N, Q32K, I43N, L44I, S45E, D47N, G65K, K70R, E76H

fold higher antigen concentration than rBet v 1.2801 to reach the same IgE inhibition (39%) [4]: 1000 fold
percent inhibition of binding of serum-IgE to biotinylated rBet v 1.2801 [5]: 39%
B3: mutated rMal d 1 (2781) (protein)
chain: B2 chain with T28N, Q32K, I43N, L44I, S45E, D47N, G65K, K70R, E76H

From patent publication US20040171116A1
